# Test results: the DeepSol protein solubility set
# Assay: soluble on expression in E. coli; label from the status in PepcDB or PDB records
row,Sequence,soluble on expression in E. coli
1,MEKKKVVLAYSGGLDTSVAIKWLQEKNYDIIALCLDLGEGKDLAFVKEKALSVGAIKSYMIDVQEEFANEYALMAMQAHTLYEGKYPLVSALSRPLIAKKLVEIAEQEGATAVAHGCTGKGNDQVRFEVSIQALNPYLEVIAPVREWKWSREEEIAYAKENNVPIPINLDSPFSIDQNLWGRSNECGILEDPWAAPPEDAYEMTLALEDTPNKPEFVEIGFEAGVPTTLNGTAYPLSELIKTLNALAGKHGVGRIDHVENRLVGIKSREVYECPAAMTLITAHKELEDLTLVKEVAHFKPMIEQKITELIYNGLWFSPLKQALHAFLQETQKNVTGTVRVKLFKGHAIVEGRKSEYSLYDEKLATYTAQDEFNHDAAVGFISLFGLPTKVYSQVNQKKVEA,not soluble
2,MSLLSKVVTQIKGFLHDSVDKASDDGRTARQLIRDVGENEEKIKEALVESRSQAIISKQKVEDKQSAIALSKKRAAKAVELDKEDLARTILVEKRQQESDLAALQNQQAKFDNIVVTLTSRFNDIQKKRSEMERKADSIDLRSKVAAATEEATKLLDVGNFASYDSASKVFDRLEDNIAKKEAKSQARGEFIDAEKDKQDELVSLDRHGLDESIEDELAALRAMNKKQELEHHHHHH,not soluble
3,SNAMRIGHGFDVHKFGENGSGPLIIGGVRIPYEKGLLAHSDGDVALHAATDALLGAAALGDIGKLFPDTDPAFKGADSRGLLREAYRRILAKGYKLGNLDITIIAQAPKMAPHIPQMRVNLAEDLQCHMDDINVKATTTEQLGFTGRGEGIACEAVVLLVNVEQG,soluble
4,MSTIPSEIINWTILNEIISMDDDDSDFSKGLIIQFIDQAQTTFAQMQRQLDGEKNLTELDNLGHFLKGSSAALGLQRIAWVCERIQNLGRKMEHFFPNKTELVNTLSDKSIINGINIDEDDEEIKIQVDDKDENSIYLILIAKALNQSRLEFKLARIELSKYYNTNLH,soluble
5,MSLRNDPTGVTHAIRLDNDIFKLNVYIKNIDTSKSNLRYTEGYLQSLTNILTRAKEIAIQGASGTYESDDKKMISKEVNALLEDVVAIANAKGPDGYSIFSGTKIDSEAFKVTRENKISKTSKDGAGPQIIKVEYNGNQAEKKTEVYNDIHMSNNYPGNVIFFLQNQNIISSINTNGFAVKENTKIYIDNIEIGLTAGDTALDIVAKINESSAPVEASIDPVLNSLSIKTTTPHQIWITEEKESNVLQTLGILTKNNDTKLPPYNLSSSTEVRSRSIFDALIELRDTLYNNKEELVGSRSLAEIDESLKRLLISVADLGAKENRLDRSYERISKEAADMKEDMIQYTDLDVTKAITNLNMASLAYQVSIGISAKIMQTTLLDFIKEGHHHHHH,soluble
6,MEKQYRVLLYYKYVPIEDPEAFREQHLAFCKELGLLGRILVSSEGINGTVSGTVEQTEKYMETMKADPRFADMVFKIDEAEGHAFKKIFVRHKKELVTLRLEDDVDPNETTGQHLKPAEFYEKMQDPNTIVIDARNDYEYDLGHFRGAVRPDIEAFRELPEWIEEHKDMLEGKKILTYCTGGVRCEKFSGWLVKQGFEDVAQLDGGIVTYGKDPEVQGKLWDGQCYVFDERISVPVNRVEHVIVGKDYFTGEPCERYVNCANPSCNKKMICTPENEYKYMRSCSHECRTNPRNLYVKEHNMTEEEVNARLAAIETEDHAAAELEHHHHHH,soluble
7,MTTATAGLAVELKQSTAQAHEKAEHSTFMSDLLKGRLGVAEFTRLQEQAWLFYTALEQAVDAVRASGFAESLLDPALNRAEVLARDLDKLNGSSEWRSRITASPAVIDYVNRLEEIRDNVDGPALVAHHYVRYLGNLSGGQVIARMMQRHYGVDPEALGFYHFEGIAKLKVYKDEYREKLNNLELSDEQREHLLKEATDAFVFNHQVFADLGKGL,soluble
8,SGAAGPSSASVKEFQNLVDQHITPFVALSKKLAPEVGNQVEQLVKAIDAEKALINTASQSKKPSQETLLELIKPLNNFAAEVGKIRDSNRSSKFFNNLSAISESIGFLSWVVVEPTPGPHVAEMRGSAEFYTNRILKEFKGVNQDQVDWVSNYVNFLKDLEKYIKQYHTTGLTWNPKGGDAKSATP,soluble
9,MEPKDTTTNDAFKGFTNTACPFLPCHKGVKREFNCLFCYCPLIAYECPGPYQVYTDKNGLTRKDCTNCTLPHDGYLASWNFIQKWLERPVIWSGAAQTTPPTRRPGRAPGDGDEELEHHHHHH,soluble
10,RPPKWTGMDVWAAAICFNTVEAAKKNLPKPESWADLTKPVYKGQIVMPHPASSGTGYLDVSAWLQTLGEKKGWDYMDKLHANMAQYVHSGSKPCKMAAAGEYPIGISFEYRGAQLKEKGAPIDLIYPKEGLGWDLEATAIIKGTKNLEAARKLADFSVSLPAMKLYEQNYAVLAMPGV,not soluble
11,MGSDKIHHHHHHSTVAIALDCKGLGSPIPGTAPLCKDLTLMATGNKPSAAFVKNTRAAYGSVLQGYHNQVKPHVAPVQAAVSKKWKQFAKSDVGGKVEKIAMNIHAWIVDKWVKIQRFVQQTWNNVAAWWKKNGQKQFGPALEGFVLGVKMVFQVVADALRSVGALLVHFFARAKTFFVAFADGGFNAAMNTLNH,not soluble
12,AEVPLPQLRAYTVDASWLQPMAPLQIADHTWQIGTEDLTALLVQTPDGAVLLDGGMPQMASHLLDNMKARGVTPRDLRLILLSHAHADHAGPVAELKRRTGAKVAANAESAVLLARGGSDDLHFGDGITYPPANADRIVMDGEVITVGGIVFTAHFMAGHTPGSTAWTWTDTRNGKPVRIAYADSLSAPGYQLQGNPRYPHLIEDYRRSFATVRALPCDVLLTPHPGASNWDYAAGARAGAKALTCKAYADAAEQKFDGQLAKETAGAR,soluble
13,MGSDKIHHHHHHMQFPSIEDLRARNTMKWTRYGQGVLPLWVAESDFSTCPAVLQAITDAVQREAFGYQPDGSLLSQATAEFYADRYGYQARPEWIFPIPDVVRGLYIAIDHFTPAQSKVIVPTPAYPPFFHLLSATQREGIFIDATGGINLHDVEKGFQAGARSILLCNPYNPLGMVFAPEWLNELCDLAHRYDARVLVDEIHAPLVFDGQHTVAAGVSDTAASVCITITAPSKAWNIAGLKCAQIIFSNPSDAEHWQQLSPVIKDGASTLGLIAAEAAYRYGTDFLNQEVAYLKNNHDFLLHEIPKRIPGAKITPMQATYLMWIDFRDTTIEGSPSEFFIEKAKVAMNDGAWFGEDGTGFCRLNFATSREVLEEAIDRMAKAVSHHT,not soluble
14,MSLKLVTFDLDDTLWDTAPAIAGAEVTLRDWLAEHAPKLGAIPVEHLWEIRSRLVAEDPSFKHRISALRRRVLFHALEDAGYDPDEAQDLADRGFEVFLHGRHQVQIFPEVQPMLEILAKTFTLGVITNGNADVRRLGLADYFAFALCAEDLGIGKPDPAPFVEALRRAKVDASAAVHVGDHPKDDIAGAQQAGMRAIWYNPQGKAWDADRLPDAEIHNLSQLPEVLARWAEGHHHHHH,soluble
15,MKIRIFVPQNKFMNREMLYNDLSGFLAMHFPCKVQKISINAGFTCPNRDGSVGYGGCTYCNNQTFNPAYCHTGKSVAQQLEEGKRFFVRKYPEMKYLAYFQAYTNTYGELEELKRKYEEALMVEDVVGLVIGTRPDCMPISLLDYLEDLGKRTFVLVEYGIESTDDETLRRINRGHTFAVSAEAVRKTAERGILVGGHIILGLPGEEREMLIRQAGVLSQLPLTTLKLHQLQLIKGTRMASEYVKEPEAFHLYTADEYVDLVIDYIEHLRPDIVLERFVSQSPKELLIAPDWGLKNYEFTDKVKKRMREKDAWQGKYYKY,not soluble
16,MSLNIAIFINTPAQFHFYRNIAKELKNRGHFVELLFRDYGENLEIAKELGLNPTVYAKPSDSKYGKILSLPSDVLRATKLLKKFKPDIITGFGVYDAFSSFLVNVPCIVFNDSEPFINSSYAVQFKLFMPFTNVLITPEAFQPNFGTKHINIPSYKEFSYLHPNYYTPKEDIFELIGIEKNEEYILLRFNAFDAVHDAGITGFTKENKIKLVKELEKHCKVFISSETQVPKEIEKNILKTPKSRIHDVLYYAKILITDTQTMTTEAALLGTPALRYNKFVGGKDMSNFIELEKNYGLIFNYQNSEKIFERAFELLNTENLKEIWKKKRELLLKNKIDSTSFMVWFFENYPESFEKMKTDVTIYENFNDNLAKIKGEGHHHHHH,soluble
17,MGSDKIHHHHHHMPLTMNKDVFITCAVTGSGSTQDRSPHVPRSPKQIAESAIEAARAGAAIVHCHVRDPESGAPSRDLSYYREVTDRIREADIDVVLNLTAGMGGDITFGSTDAPFPVDEAGTDMVGAAERVAHIADCLPEICTLDCGTMNFAEADYVMTNTPGMLRAMGRMMTDLGVKPEIEAFDTGHLWFAKELVKEGVLDSPALVQLCMGVPWGAPDDLNTFMAMVNNVPDNWTFSAFALGRNEMAYVAASVLAGGNVRVGLEDNLWLEKGVLATNAQLVEQAVGIIEGMGARVIGPDMVRETLGLTKQAPA,not soluble
18,WSGVMEWQEPRPEPNSRSKRWLPSHVYVNQGEILRTEQWPRKLYMQLIPQQLLTTLVPLFRNSRLVQFHFTKDLETLKSLCRIMDNGFAGCVHFSYKASCEIRVLMLLYSSEKKIFIGLIPHDQGNFVNGIRRVIANQQQVLQRNLEQEQQQRGMGG,not soluble
19,MSLSGSDYCFSTLGCSELSLHETADLTERHGIANVELRALSGTIDLIAALTAEFGTPARFAAFLSERNLRVAALNTSMRLFGSDSLSEIEPFIDWAEAANIAYLRIFDGGKKIGPEDLDRSAALLDNWQAVRQTRGLNVDLMIETHDALSDFEQLLTFIEQVPAARILWDTHHTWAKGSNLKMVWRQIERNVVHLHVKDSVMDSDRERRYVLPGQGEFPISELLSLILPNERQIPLSLEWERHWHPQLPPLADALKAAHSWWRQGVSEGHHHHHH,soluble
20,MGSLDHGAKEQLQSEEFGERKQFEDKELGAKKDEALHVLEGLITRSKTKLLNQAITTLLQKIEGSLKLEACPTTLVVIQAV,not soluble
21,MKGPYKHFMQKEIFEQPDSAFNTMRGRIDFENCVVTLGGLKSWLSTIRRCRRIIMIACGTSYHSCLATRSIFEELTEIPVSVELASDFLDRRSPVFRDDTCVFVSQSGETADSILALQYCLERGALTVGIVNSVGSSMSRQTHCGVHINAGPEIGVASTKAYTSQYIALVMFALSLSNDSISRKGRHEEIIKGLQKIPEQIKQVLKLENKIKDLCNSSLNDQKSLLLLGRGYQFATALEGALKIKEISYMHSEGVLAGELKHGILALVDEDLPIIAFATRDSLFPKVMSAIEQVTARDGRPIVICNEGDAIISNDKVHTTLEVPETVDCLQGLLNVIPLQLISYWLAVNRGIDVDFPRNLAKSVTVE,soluble
22,MPILKHLLLKNRKQPMQKKFVATAVGYVPWGDGAAEYFYNLYEYEDGTRECEKFDGGQYYKIPENADFSTKAQVKAWIYGGAVPKSVLSYEALIDEMNENIKQRSQAGGEIDRQLEEALDKQLGRYKNNKKIKNYRKQLNLKHDSSALFLDGEEIYSVTACRINQKI,not soluble
23,GMKCNDKLAPFEVFDHVVNKKLSFRHVTMDDVDMLHSWMHEEHVIPYWKLNIPLVDYKKHLQTFLNDDHQTLMVGAINGVPMSYWESYWVKEDIIANYYPFEEHDQGIHLLIGPQEYLGQGLIYPLLLAIMQQKFQEPDTNTIVAEPDRRNKKMIHVFKKCGFQPVKEVELPDKIGLLMKCEQNVFEKRWSDWKMNKF,soluble
